According to the RNAGym collection of RNA variant scans (doi:10.7554/elife.80360):

B1: HDV Ribozyme (parent)
chain: GGCCGGCAUGGUCCCAGCCUCCUCGCUGGCGCCGGCUGGGCAACAUUCCGAGGGGACCGUCCCCUCGGUAAUGGCGAAUGGGACCCA

Variants of: B1
Experiment: self-cleavage, relative activity (ratio to wild type); higher = more cleavage; co-transcriptional

Variant | self-cleavage
GGCCGGCAUGGUCCCAGCCUCCUCGCUGGCGCCGGCUGGGCAACAUUCCGAGGGGACCGUCCUCUCGGUAAUGGCGAACGGGACCCA | 0.411
GGUCGGCAUGGUCCCAGCCUCCUCGCUGGCGCCGGCUGGGCAACAUUCCGAGGGGACCGCCCCCUCGGUAAUGGCGAAUGGGACCCA | 0.943
GGCCGGGAUGGUCCCAGCCUCCUCGCUGGCGCCGGCUGGGCAACAUUCCGAGGGGACCGUCCCCUCGGUAAUGGCGAAUGGGACCCC | 0.211
GGCCGGCAUGGUCCCAGCCUCCUCGCUGGCGCCGGCUGGGGAACAUUCCGAGUGGACCGUCCCCUCGGUAAUGGCGAAUGGGACCCA | 0.53
GGCCGGCAUGGUCCCAGCCUCCUGGCUGGCGCCGGCUGGGCAACAUUCCGAGGGGACCGUCCCCUCGGUAAUGGCCAAUGGGACCCA | 0.219
GGCCGGCAUGGUCCCAGCCUCCUCGCUGGCGCCGGCUGGGCAACAUUCUGAGGGGACCGUCCCCUCUGUAAUGGCGAAUGGGACCCA | 0.859
GGCCGGCAUGGUCCCAGCCUCCUCGCUGGCGCCGGCUGGGCAACUUUCCGAGGGGAUCGUCCCCUCGGUAAUGGCGAAUGGGACCCA | 0.712
GGCCGGCAUGGUCCCAGCCUCCUCGCUGGCGCCGGCUGGGCAACAUUACCAGGGGACCGUCCCCUCGGUAAUGGCGAAUGGGACCCA | 1.11
GGCCGGCAUGGUCCCAGCCUCCUCGCUGGCGACGGCUGGGCAACAUUCCGAGGGGACCGUCCCCUCGGUAACGGCGAAUGGGACCCA | 0.133
GGCCGGCAUGGUCCCAACCUCCUCGCUGGCGCCGGCUGGGCAACAUUCCGAGGUGACCGUCCCCUCGGUAAUGGCGAAUGGGACCCA | 0.554
GGCCGGCGUGGUCCCAGCCUCCUCGCUGGCACCGGCUGGGCAACAUUCCGAGGGGACCGUCCCCUCGGUAAUGGCGAAUGGGACCCA | 0.415
GGCCGGCAUGGUCCCAGCCUCCACGCUGGCGCCGGCUGGGCAACAUUCCGAGGGGACCGUCCCCUCGGUAAUGGCGAAUGGGAUCCA | 0.762
GGCCGGCAUGGGCCCAGCCUCCUCGCUGGCGCCGGCUGGGCAAGAUUCCGAGGGGACCGUCCCCUCGGUAAUGGCGAAUGGGACCCA | 0.475
GGCCGGCAUGGUCCCAGCCUCCUCGCUGGCGCCGGCUGGGCAACAUUCCGAGGGGACCGUCCCUUCGGUAACGGCGAAUGGGACCCA | 0.612
GGCCGGCAUGGUCACAGCCUCCUCGCUGGCGCCGGCUGGGCAACAUUCCGAGGGGACCGUCCCGUCGGUAAUGGCGAAUGGGACCCA | 0.892
GGCCGGCAUGGUCUCAGCCUCCUCGCUGGCGCCGGCUGGGCAACAUUCAGAGGGGACCGUCCCCUCGGUAAUGGCGAAUGGGACCCA | 1.37

Variant | self-cleavage
GGCCGGCAUGGUCCCAGCCUCCUCGCUGGCGCGGGCUGGACAACAUUCCGAGGGGACCGUCCCCUCGGUAAUGGCGAAUGGGACCCA | 0.243
GGCCGGCAUGGUCCCAGCCUCCUCGCUGGUGCCGGCUGGGCAACAUUCCGAGGGGACCGUCCCCUCGGUAAUAGCGAAUGGGACCCA | 0.277
GGCCGGCAUGGUCCCUGCCUCCUCGCUGGCGCCGGCUGGGCAACAUUCCGAGGGGACCGUCCCCUCGGUAAUGGCGAAUGGGAUCCA | 0.678
GGCCGGCAUGGUCCCAGCCUACUCGCUGGCGCCGGCAGGGCAACAUUCCGAGGGGACCGUCCCCUCGGUAAUGGCGAAUGGGACCCA | 0
GGCCGGCAUGGUCCCAGCCUCCUCUCUGGCGCCGGCUGGGCAACAUUCCGAGGGGACCGUCCCCUCGGUAAUGGCGAAUGGCACCCA | 0.0755
GGCCGGCAUGAUCCCAGCCUCCUCGCUGGCGCCGGCUGGGGAACAUUCCGAGGGGACCGUCCCCUCGGUAAUGGCGAAUGGGACCCA | 0.188
GGCCGGCAUGGUCCCAGCCUCCUCGUUGGCGCCGGCUGGGCAACAUUCCGAGGGGACCGUCCCCUCGGUAAAGGCGAAUGGGACCCA | 0.731
GGCCGGCAUGGUCCCAGCUUCCUCGCUGGCGCCGGCUGGGCAACAUUCCGAGCGGACCGUCCCCUCGGUAAUGGCGAAUGGGACCCA | 0.0875
GGCCGGCAUGGUCCCAGGCGCCUCGCUGGCGCCGGCUGGGCAACAUUCCGAGGGGACCGUCCCCUCGGUAAUGGCGAAUGGGACCCA | 0.185
GGCCGGCAUGGUCCCAGCCUCCUCGCUGGCGCCGGCUGGGCAACAUUCCGCGGGGACCGUCCCCUCGGUAAUGGCGAAAGGGACCCA | 0.959
GGCCGGCAUGGUCCCAGCCUCCUCGCUGGCGCCGGCUGGGCAACAUUGCGAGGGGACCGUCCCCUCGGUAAUGGCGAAUGGGACACA | 0.8
GGCCGGCAUGGUCCCAGCCUCCUCGCUGGCGCCGGCUGGGCAACAUUCCGAGGGGACCUUCCCCUCGGUAAUGGCGCAUGGGACCCA | 0.453
GGCCGGCAUGGUCCCAGCCUCCUCGCUGACGCCGGCUGGGCAACAUUCCGUGGGGACCGUCCCCUCGGUAAUGGCGAAUGGGACCCA | 0.277
GGCCGGCAUGGUCCCAGCCUCCUCGCUGGCGCCGGCUGGGCAACAUUCCAAGGGGACCGUCCCCUCGGUAAUGGCAAAUGGGACCCA | 1.05
GGCCGGCAUGGUCCCAGCCUCCUCGCUCGCGCCGGCUGCGCAACAUUCCGAGGGGACCGUCCCCUCGGUAAUGGCGAAUGGGACCCA | 0
GGCCGCCAUGGUCCCAGCCUCCUCGCUGGCGCCGGCUGGGCAACAUUCCGAGGGGACCGUCCGCUCGGUAAUGGCGAAUGGGACCCA | 0.246
